Substitutions are numbered along the chain they refer to.
B1: 1F (antibody, human IgG1, V domains shown)
VH: EVQLLESGGGLVQPGGSLRLSCAASGFTFSDYAMGWVRQAPGKGLEWVSTISGSGGLTYYADSVKGRFTISRDNSKNTLYLQMNSLRAEDTAVYYCAKAPYGYYMDVWGKGTTVTVSS
VL: not shown
notes: Human IgG1; also called antibody designated 1F
B2: 1G (antibody, human IgG1, V domains shown)
VH: B1 VH with D31S, G35A, T50A
VL: not shown
notes: Human IgG1; also called antibody designated 1G
B3: 39A (antibody, human IgG1, V domains shown)
VH: QVQLVQSGAEVKKPGSSVKVSCKASGGTFSSNAIGWVRQAPGQGLEWMGSIIPIIGFANYAQKFQGRVTITADESTSTAYMELSSLRSEDTAVYYCARDSGYYYGASSFGMDVWGQGTTVTVSS
VL: EIVMTQSPATLSVSPGERATLSCRASQSVSSNLAWYQQKPGQAPRLLIYGASTRATGIPARFSGSGSGTEFTLTISSLQSEDFAVYYCEQYNNLPLTFGGGTKVEIK
notes: Human IgG1; also called antibody designated 39A
B4: anti-TF antibody 39A conjugated to MC-vc-PAB-MMAE (antibody, IgG1, V domains shown)
VH: B3 VH
VL: B3 VL
modifications: MC-vc-PAB-MMAE on cysteines of the partially reduced antibody (chain and positions not stated), DAR 3-4
notes: Antibody-drug conjugate (primary ADC) of the IgG1 antibody; also called 39A ADC
B5: 25A (antibody, human IgG1, V domains shown)
VH: QVQLVQSGAEVKKPGASVKVSCKASGYTFDVYGISWVRQAPGQGLEWMGWIAPYNGNTNYAQKLQGRVTMTTDTSTSTAYMELRSLRSDDTAVYYCARDAGTYSPFGYGMDVWGQGTTVTVSS
VL: DIQMTQSPSTLSASVGDRVTITCRASQSISSWLAWYQQKPGKAPKLLIYKASSLESGVPSRFSGSGSGTEFTLTISSLQPDDFATYYCQQFQSLPPFTFGGGTKVEIK
notes: Human IgG1; also called antibody designated 25A; Antibody Clone 25A
B6: 25A5-T (antibody, human IgG1, V domains shown)
VH: B5 VH with V31A, N55S
VL: B5 VL with Q27E, S31N, S52Y, S56Y, S93K
notes: Human IgG1; also called antibody designated 25A5-T
B7: anti-TF antibody 29E conjugated to MC-vc-PAB-MMAE (antibody, IgG1, V domains shown)
VH: QVQLVESGGGVVQPGRSLRLSCAASGFTFRSYGMHWVRQAPGKGLEWVAVITYDGINKYYADSVEGRFTISRDNSKNTLYLQMNSLRAEDTAVYYCARDGVYYGVYDYWGQGTLVTVSS
VL: not shown
modifications: MC-vc-PAB-MMAE on cysteines of the partially reduced antibody (chain and positions not stated), DAR 3-4
notes: Antibody-drug conjugate (primary ADC) of the IgG1 antibody; also called 29E ADC
B8: 54E (antibody, human IgG1, V domains shown)
VH: QVQLVQSGAEVKKPGASVKVSCKASGYTFANYYMHWVRQAPGQGLEWMGIINPSGGITVYAQKFQGRVTMTRDTSTSTVYMELSSLRSEDTAVYYCARGGSKVAALAFDIWGQGTMVTVSS
VL: DIQMTQSPSSLSASVGDRVTITCQASQDISNSLNWYQQKPGKAPKLLIYDASNLETGVPSRFSGSRSGTDFTFTISSLQPEDIATYYCQQYNFHPLTFGGGTKVEIK
notes: Human IgG1; also called antibody designated 54E
B9: anti-TF antibody 54E conjugated to MC-vc-PAB-MMAE (antibody, IgG1, V domains shown)
VH: B8 VH
VL: B8 VL
modifications: MC-vc-PAB-MMAE on cysteines of the partially reduced antibody (chain and positions not stated), DAR 3-4
notes: Antibody-drug conjugate (primary ADC) of the IgG1 antibody; also called 54E ADC

Key:
human Tissue Factor (TF) [1] = target: T1, human Tissue Factor (TF) (human, UniProt P13726 33-295); assay: cell-based or functional assay
human Tissue Factor (TF) [2] = target: T1, human Tissue Factor (TF); assay: flow cytometry, A431 cells; antibody at 100 nM; competitor 20 nM 43Ea-Alexa488
Procedure: (§1) After another 1 hr incubation on ice, cells were washed, stained with a viability dye, and analyzed by flow cytometry. The Alexa488 fluorescence data from viable cells was summarized using median fluorescence intensity.

human Tissue Factor (TF) [3] = target: T1, human Tissue Factor (TF); assay: flow cytometry, MDA-MB-231 cells; competitor 20 nM FVII-Fc-Alexa488; antibody at 83 nM
Procedure: as §1

human Tissue Factor (TF) [4] = target: T1, human Tissue Factor (TF); assay: flow cytometry, MDA-MB-231 cells; competitor 20 nM FVII-Fc-Alexa488; antibody at 250 nM
Procedure: as §1

human Tissue Factor (TF) [5] = target: T1, human Tissue Factor (TF); assay: flow cytometry, MDA-MB-231 cells; competitor 20 nM FVII-Fc-Alexa488; antibody at 9.25 nM
Procedure: as §1

human Tissue Factor (TF) [6] = target: T1, human Tissue Factor (TF); assay: cell-based or functional assay; remark: listed apart in the source
human Tissue Factor (TF) [7] = target: T1, human Tissue Factor (TF); assay: flow cytometry, A431 cells; antibody at 100 nM; competitor 20 nM 25A-Alexa488
Procedure: as §1

human Tissue Factor (TF) [8] = target: T1, human Tissue Factor (TF); assay: flow cytometry, MDA-MB-231 cells; competitor 20 nM FVII-Fc-Alexa488; antibody at 28 nM
Procedure: as §1

human Tissue Factor (TF) [9] = target: T1, human Tissue Factor (TF); assay: cell-based or functional assay; remark: listed apart in the source
[10] = target: T2, human Tissue Factor (hTF) (human, UniProt P13726 33-295); assay: cell-based or functional assay
[11] = target: T2, human Tissue Factor (hTF); assay: cell-based or functional assay; remark: listed apart in the source
[12] = target: T3, human Tissue Factor on human TF-positive cells (human, UniProt P13726 33-295); assay: flow cytometry, titration of the MC-vc-PAB-MMAE ADC on HCT-116 cells (human TF), 4-parameter fit of MFI
T3 construct: also called hTF; CD142

[13] = target: T4, rTF (rat TF) construct on HEK293 cells (rat, UniProt P42533 29-252); assay: flow cytometry (live cell staining), antibody titration 1:3 from 250 nM on HEK293 cells transfected with rTF
T4 construct: not shown: transmembrane/cytoplasmic anchor of the cell-surface construct
T4 sequence (P42533 29-252 limits assumed): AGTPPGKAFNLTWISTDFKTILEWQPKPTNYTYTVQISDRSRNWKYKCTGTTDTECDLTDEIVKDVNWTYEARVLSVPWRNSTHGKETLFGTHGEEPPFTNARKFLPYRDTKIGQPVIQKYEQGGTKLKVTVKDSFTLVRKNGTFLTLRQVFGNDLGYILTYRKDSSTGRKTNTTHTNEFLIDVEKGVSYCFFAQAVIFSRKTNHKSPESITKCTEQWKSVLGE

| Binder | % GM-CSF at 2.56 nM antibody (human Tissue Factor (TF) [1]) [%] | % GM-CSF at 6.4 nM antibody (human Tissue Factor (TF) [1]) [%] | % GM-CSF at 16 nM antibody (human Tissue Factor (TF) [1]) [%] | % GM-CSF at 40 nM antibody (human Tissue Factor (TF) [1]) [%] | % GM-CSF at 100 nM antibody (human Tissue Factor (TF) [1]) [%] | % 43Ea binding (human Tissue Factor (TF) [2]) [%] | % FVIIa (human Tissue Factor (TF) [3]) [%] | % FVIIa (human Tissue Factor (TF) [4]) [%] | % FVIIa (human Tissue Factor (TF) [5]) [%] | % IL8 at 2.56 nM antibody (human Tissue Factor (TF) [6]) [%] | % IL8 at 6.4 nM antibody (human Tissue Factor (TF) [6]) [%] | % IL8 at 16 nM antibody (human Tissue Factor (TF) [6]) [%] | % IL8 at 40 nM antibody (human Tissue Factor (TF) [6]) [%] | % IL8 at 100 nM antibody (human Tissue Factor (TF) [6]) [%] | % 25A binding (human Tissue Factor (TF) [7]) [%] | % FVIIa (human Tissue Factor (TF) [8]) [%] | IC50, cell viability of A431 cells, Primary ADC, Continuous (FIG. 20A) [10] [pM] | IC50, cell viability of A431 cells, Primary ADC, 4 hr, followed by washout (FIG. 20B) [11] [pM] | IC50, cell viability of A431 cells, Primary ADC, 4 hr, followed by washout, absence of FVIIa (FIG. 21A) [11] [pM] | EC50 [12] [pM] | also measured |
| --- | --- | --- | --- | --- | --- | --- | --- | --- | --- | --- | --- | --- | --- | --- | --- | --- | --- | --- | --- | --- | --- |
| B1 | 27 | 8 | 6 | 6 | 6 | 77 | 7 | 6 | 7 | 18 | 3 | 2 | 2 | 2 | 95 | 7 | – | – | – | – | – |
| B2 | 34 | 9 | 7 | 7 | 7 | 58 | 7 | 6 | 7 | 26 | 4 | 3 | 2 | 2 | 75 | 7 | – | – | – | – | % FXa at 12.5 nM antibody (human Tissue Factor (TF) [9]): 55%; % FXa at 25 nM antibody (human Tissue Factor (TF) [9]): 48%; % FXa at 50 nM antibody (human Tissue Factor (TF) [9]): 41%; % FXa at 100 nM antibody (human Tissue Factor (TF) [9]): 41% |
| B3 | 42 | 8 | 5 | 5 | 7 | – | 2 | 2 | 2 | 52 | 6 | 2 | 2 | 3 | – | 2 | – | – | – | – | – |
| B4 | – | – | – | – | – | – | – | – | – | – | – | – | – | – | – | – | 50 | 120 | 90 | 100 | IC50, cell viability of HPAF-II cells, Primary ADC, Continuous (FIG. 22E) [10]: 40 pM; IC50, cell viability of MDA-MB-231 cells, Primary ADC, Continuous (FIG. 22D) [10]: 50 pM |
| B5 | 57 | 24 | 22 | 19 | 22 | 1 | 97 | 98 | 100 | 43 | 11 | 10 | 8 | 9 | 3 | – | – | – | – | – | – |
| B6 | – | – | – | – | – | – | – | – | – | – | – | – | – | – | – | – | – | – | – | – | binding result [13]: no binding (tested: 250 nM) |
| B7 | – | – | – | – | – | – | – | – | – | – | – | – | – | – | – | – | 60 | 200 | 130 | 250 | IC50, cell viability of HPAF-II cells, Primary ADC, Continuous (FIG. 22E) [10]: 40 pM; IC50, cell viability of MDA-MB-231 cells, Primary ADC, Continuous (FIG. 22D) [10]: 70 pM |
| B8 | 38 | 10 | 5 | 5 | 5 | 96 | 3 | 2 | 11 | 48 | 8 | 3 | 2 | 2 | 99 | 3 | – | – | – | – | % FXa at 12.5 nM antibody (human Tissue Factor (TF) [9]): 53%; % FXa at 25 nM antibody (human Tissue Factor (TF) [9]): 44%; % FXa at 50 nM antibody (human Tissue Factor (TF) [9]): 41%; % FXa at 100 nM antibody (human Tissue Factor (TF) [9]): 42% |
| B9 | – | – | – | – | – | – | – | – | – | – | – | – | – | – | – | – | 70 | 260 | 200 | 330 | – |

Source: US20250361322A1 (ICONIC THERAPEUTICS, published 2025)
